From US5683985, “Oligonucleotide decoys and methods relating thereto” (The Salk Institute for Biological Studies)

Assays:
JUN = JUN (UniProt P05412); details: PS at 6 linkages within the Sp1 recognition octamer; K2PtCl4 crosslinking, SDS gel
CREB (CRE-BP) [1] = biological target: T1, CREB (CRE-BP) (UniProt P15337 P15337:1-327); assay: EMSA; crosslinks with K2PtCl4 at ~40% of ligCRE(s)6 efficiency; details: chain copies: 2; label: 32P; closed circular dumbbell
Experimental: For crosslinking of oligonucleotide to protein, approximately 0.015 pmole of the appropriate [^32P]-labelled dumbbell oligonucleotide was first incubated with 200 ng CREB or JUN protein in 10 μl of buffer containing 50 mM KCl, 15 mM Tris (pH 7.5), 0.1 mM EDTA, […], 180 ng acetylated BSA and 250 ng (poly[dI-dC]·poly[dI-dC]) as described above. After 15 minutes at room temperature, 1–3 μl of a freshly prepared solution containing the required amount of K_2PtCl_4 or transPt^II in buffer containing 1 mM phosphate (pH 7) and 0.1 mM EDTA was added to the reaction mixture. Incubation was continued at room temperature in the dark for 1 hour. 0.5 μl of a 5% solution of SDS was then added and the crosslinked product separated from non-crosslinked oligonucleotide on an 8% polyacrylamide gel using buffer containing 90 mM Tris-borate (pH 8.2) and 0.1% SDS (SDS gels disrupt noncovalently associated DNA-protein complexes).

CREB (CRE-BP) [2] = biological target: T1, CREB (CRE-BP); assay: EMSA; 50 mM KCl, 15 mM Tris pH 7.5, room temperature; details: chain copies: 2, label: 5'-32P
Experimental: (§1) Binding of the ligated CRE and CRE(s)_6 sequences to the CREB protein was carried out as previously described [Dwarki et al., EMBO J. 9:225–232 (1990); chu and Orgel, Nucleic Acids Res. 19:6958 (1991)]. Approximately 0.015 pmole of the [^32P]-CRE sequences was added to ~200 ng of pure CREB protein in 10 µl of buffer containing 50 mM KCl, 15 mM Tris, (pH 7.5), 0.1 mM EDTA, 0.5 mM DTT, 180 ng acetylated BSA and 250 ng (poly[dI-dC].poly[dI-dC]) and then incubated at room temperature for 15–20 minutes. Binding was detected by gel shift assay on 6% non-denaturing gels using 40 mM Tris-borate at pH 8.2 as the electrophoresis buffer. Binding of the ligated CRE sequences to an aliquot of nuclear extract from PC12 cells (4 μg total protein) was carried out in the same way. Binding of TRE sequences to the JUN protein was carried out similarly in 10 μl of buffer containing 50 mM Tris (pH 7.9), 100 mM KCl, 1 mM EDTA, 1 mM DTT, 12.5 mM MgCl_2, 20% glycerol and 250 ng (poly[dI-dC]·poly[dI-dC]). Binding was detected by non-denaturing gel electrophoresis on 6% acrylamide, using 20 mM Tris-borate (pH 8.2) as electrophoresis buffer.

CREB (CRE-BP) [3] = biological target: T1, CREB (CRE-BP); assay: EMSA; does not bind CREB; crosslinking <10% of CRE at 2 mM K2PtCl4, none at 0.3 mM; details: chain copies: 2; label: 32P; closed circular dumbbell
Experimental: (§2) Binding of the ligated CRE and CRE(s)_6 sequences to the CREB protein was carried out as previously described [Dwarki et al., EMBO J. 9:225–232 (1990); chu and Orgel, Nucleic Acids Res. 19:6958 (1991)]. Approximately 0.015 pmole of the [^32P]-CRE sequences was added to ~200 ng of pure CREB protein in 10 µl of buffer containing 50 mM KCl, 15 mM Tris, (pH 7.5), 0.1 mM EDTA, 0.5 mM DTT, 180 ng acetylated BSA and 250 ng (poly[dI-dC].poly[dI-dC]) and then incubated at room temperature for 15–20 minutes. Binding was detected by gel shift assay on 6% non-denaturing gels using 40 mM Tris-borate at pH 8.2 as the electrophoresis buffer. Binding of the ligated CRE sequences to an aliquot of nuclear extract from PC12 cells (4 μg total protein) was carried out in the same way. Binding of TRE sequences to the JUN protein was carried out similarly in 10 μl of buffer containing 50 mM Tris (pH 7.9), 100 mM KCl, 1 mM EDTA, 1 mM DTT, 12.5 mM MgCl_2, 20% glycerol and 250 ng (poly[dI-dC]·poly[dI-dC]). Binding was detected by non-denaturing gel electrophoresis on 6% acrylamide, using 20 mM Tris-borate (pH 8.2) as electrophoresis buffer. […]

CREB (CRE-BP) [4] = biological target: T1, CREB (CRE-BP); assay: EMSA; PS does not diminish binding; K2PtCl4 crosslinking 40-50% of binding at 2.3 mM; details: chain copies: 2; label: 32P; closed circular dumbbell
Experimental: as §2

CREB (CRE-BP) [5] = biological target: T1, CREB (CRE-BP); assay: EMSA; bound more efficiently than the other oligomers; 50 mM KCl, pH 7.5; details: chain copies: 2; label: 32P; closed circular dumbbell
Experimental: as §1

T1 sequence (P15337 whole entry, one chain of several): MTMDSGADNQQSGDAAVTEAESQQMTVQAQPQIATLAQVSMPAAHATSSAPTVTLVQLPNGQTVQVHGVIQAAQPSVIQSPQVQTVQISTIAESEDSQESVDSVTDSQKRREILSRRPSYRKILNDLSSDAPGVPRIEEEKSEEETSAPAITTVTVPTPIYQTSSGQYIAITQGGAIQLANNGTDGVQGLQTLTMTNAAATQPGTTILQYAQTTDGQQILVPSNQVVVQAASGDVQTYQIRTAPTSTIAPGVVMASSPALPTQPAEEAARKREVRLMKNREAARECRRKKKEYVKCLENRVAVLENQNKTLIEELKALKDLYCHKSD
JUN, sequence (P05412 whole entry): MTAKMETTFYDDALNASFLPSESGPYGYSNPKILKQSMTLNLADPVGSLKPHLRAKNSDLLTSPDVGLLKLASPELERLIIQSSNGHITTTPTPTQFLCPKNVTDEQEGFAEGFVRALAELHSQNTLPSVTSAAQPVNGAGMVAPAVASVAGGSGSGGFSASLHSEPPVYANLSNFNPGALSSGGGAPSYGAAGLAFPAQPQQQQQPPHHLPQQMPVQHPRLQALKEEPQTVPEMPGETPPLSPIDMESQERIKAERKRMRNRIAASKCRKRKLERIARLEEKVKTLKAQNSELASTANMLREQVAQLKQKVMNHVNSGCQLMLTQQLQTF

Work on “CCTCTCGCTCGCCCCGCCCCGATCCTCTCGATCGGGGCGGGGCGAG [ligSp1(s)6 dumbbell]” yielded a binding signal (% of ligTRE(s)6 crosslinking) (JUN) of under 10.

In the case of ACTCTCTGTGTCTGACTCATGCTCTCTCAGCATGAGTCAGACAC (structured_DNA, PS at 6 linkages within the recognition sequence) [ligTRE(s)6 dumbbell], the binding signal (CREB (CRE-BP) [1]) is reported as ~0.1 fold of ligCRE(s)6.

B1: CRE 18-mer duplex (dsDNA)
DNA 1: AAATTGACGTCATGGTAA
DNA 2: TTACCATGACGTCAATTT
B1: binds (CREB (CRE-BP) [2]).

AAATTGACGTCATGGTAACTCTCTTACCATGACGTCAATTT (structured_DNA) [CRE 41-mer hairpin]: binds (CREB (CRE-BP) [2]; hairpin with CTCTC loop).

CCTCTCGCTCGCCCCGCCCCGATCCTCTCGATCGGGGCGGGGCGAG (structured_DNA, PS at 6 linkages within the Sp1 recognition octamer) [ligSp1(s)6 dumbbell]: no binding (CREB (CRE-BP) [3]).

GTAACTCTCTTACCATGACGTCAATTTCTCTCAAATTGACGTCATG (structured_DNA) [CRE 46-mer nicked dumbbell]: binds (CREB (CRE-BP) [2]; nicked dumbbell).

GTAACTCTCTTACCATGACGTCAATTTCTCTCAAATTGACGTCATG (structured_DNA, PS at 6 linkages within the octamer (T(s)GAC(s)GTC(s)A on both strands)) [ligCRE(s)6 dumbbell]: binds (CREB (CRE-BP) [4]).

GTAACTCTCTTACCATGACGTCAATTTCTCTCAAATTGACGTCATG (structured_DNA) [ligCRE dumbbell]: binds (CREB (CRE-BP) [5]).
